Data published in paper PMC12630144.

B1: WT-box consensus probe (dsDNA)
DNA 1: ATCGTCTAGATCGAAAAAGTCAACCGATGCTAGTCGTCA
DNA 2: TGACGACTAGCATCGGTTGACTTTTTCGATCTAGACGAT
B2: WK-box consensus probe (dsDNA)
DNA 1: ATCGTCTAGATCGATTTTTCCACACGATGCTAGTCGTCA
DNA 2: TGACGACTAGCATCGTGTGGAAAAATCGATCTAGACGAT

Biological target: WRKY50 (Arabidopsis thaliana, UniProt Q8VWQ5 1-173)
Assay: EMSA

Sequence of WRKY50 (Q8VWQ5 whole entry): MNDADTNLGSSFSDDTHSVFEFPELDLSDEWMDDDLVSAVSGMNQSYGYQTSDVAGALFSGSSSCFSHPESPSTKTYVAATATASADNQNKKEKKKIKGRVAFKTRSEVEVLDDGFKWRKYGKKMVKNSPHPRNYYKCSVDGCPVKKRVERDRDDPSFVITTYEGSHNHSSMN

Binder	binding result
B1	binds
B2	binds
